Laboratory results taken from patent US20170204402A1 (published 2017).

Target: T1, ACM335-FKBP hybrid protein (from plasmid pCm-ACM335-FKBP) (Bordetella pertussis, UniProt P62942 2-108)
T1 construct: also called ACM-FKBP
Assay: HSACH in vivo complementation in E. coli DHM1 (data not shown)

B1: 3K1K-CaM fusion (VHH)
VHH: QVQLVESGGALVQPGGSLRLSCAASGFPVNRYSMRWYRQAPGKEREWVAGMSSAGDRSSYEDSVKGRFTISRDDARNTVYLQMNSLKPEDTAVYYCNVNVGFEYWGQGTQVTVSS
**Q.** Does B1 bind?
**A.** no binding
